The results in this text go back to paper PMC7464098, “Conformational Equilibrium of NADPH–Cytochrome P450 Oxidoreductase Is Essential for Heme Oxygenase Reaction” (Antioxidants, 2020).

Conditions in all cases: both partners purified
Experiment [1] has as its target rat CPR mutant with a disulfide bridge Cys147–Cys514 (closed-form stabilized CPR) (rat, UniProt P00388 58-678, Asp147 substituted with cysteine | Arg514 substituted with cysteine | Cys136Ala …, disulfide bond between Cys147 and Cys514). In words: AUC; sedimentation equilibrium, equimolar mixtures (15 μM each for 147CC514; concentrations for rCPR and IAM/DTT-treated 147CC514 not told), 25 °C, 0.1 M potassium phosphate pH 7.4, 15,000 rpm, absorbance at 455 nm; apparent affinity.

The target in experiment [2] is T1, rat NADPH–cytochrome P450 oxidoreductase (soluble form) (rat, UniProt P00388 58-678).
T1 construct: Holds FAD and FMN; The limit Met1-Ile57 is printed in the sentence on the 147CC514 cDNA; also called rCPR; CPR; source: E. coli, purified
T1 sequence (looked up): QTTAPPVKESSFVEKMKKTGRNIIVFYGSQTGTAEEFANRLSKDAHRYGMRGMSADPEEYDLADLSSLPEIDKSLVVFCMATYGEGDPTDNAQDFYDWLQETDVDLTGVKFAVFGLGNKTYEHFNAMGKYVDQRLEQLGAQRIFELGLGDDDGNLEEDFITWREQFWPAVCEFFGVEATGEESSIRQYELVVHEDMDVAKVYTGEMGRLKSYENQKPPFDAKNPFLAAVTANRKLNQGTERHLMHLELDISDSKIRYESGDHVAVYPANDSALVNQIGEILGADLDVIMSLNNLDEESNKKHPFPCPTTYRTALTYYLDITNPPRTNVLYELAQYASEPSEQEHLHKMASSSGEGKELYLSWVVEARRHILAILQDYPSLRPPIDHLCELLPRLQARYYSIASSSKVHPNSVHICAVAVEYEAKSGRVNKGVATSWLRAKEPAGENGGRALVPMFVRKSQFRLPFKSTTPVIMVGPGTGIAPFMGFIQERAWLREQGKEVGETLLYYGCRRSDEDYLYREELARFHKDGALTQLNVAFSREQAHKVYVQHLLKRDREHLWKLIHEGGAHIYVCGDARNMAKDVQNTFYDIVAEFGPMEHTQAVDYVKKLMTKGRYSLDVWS
The description is as above.

A further experiment concerns the target IAM/DTT-treated 147CC514 (rat, UniProt P00388 58-678, Asp147 substituted with cysteine | Arg514 substituted with cysteine | Cys136Ala …, disulfide bond between Cys147 and Cys514 cleaved, both cysteine residues alkylated (2-iodoacetamide)). The description is as above.
Experiment [3] addresses T2, rat CPR mutant lacking Thr236 to Glu239 of the hinge (open-form stabilized CPR) (rat, UniProt P00388 58-678, ΔTGEE (from Thr236 to Glu239 removed)).
T2 construct: rat NADPH–cytochrome P450 reductase, soluble form without the membrane-spanning region (Met1-Ile57), four consecutive hinge residues Thr236 to Glu239 removed; Holds FAD and FMN; also called ΔTGEE; source: E. coli, purified
T2 sequence (looked up): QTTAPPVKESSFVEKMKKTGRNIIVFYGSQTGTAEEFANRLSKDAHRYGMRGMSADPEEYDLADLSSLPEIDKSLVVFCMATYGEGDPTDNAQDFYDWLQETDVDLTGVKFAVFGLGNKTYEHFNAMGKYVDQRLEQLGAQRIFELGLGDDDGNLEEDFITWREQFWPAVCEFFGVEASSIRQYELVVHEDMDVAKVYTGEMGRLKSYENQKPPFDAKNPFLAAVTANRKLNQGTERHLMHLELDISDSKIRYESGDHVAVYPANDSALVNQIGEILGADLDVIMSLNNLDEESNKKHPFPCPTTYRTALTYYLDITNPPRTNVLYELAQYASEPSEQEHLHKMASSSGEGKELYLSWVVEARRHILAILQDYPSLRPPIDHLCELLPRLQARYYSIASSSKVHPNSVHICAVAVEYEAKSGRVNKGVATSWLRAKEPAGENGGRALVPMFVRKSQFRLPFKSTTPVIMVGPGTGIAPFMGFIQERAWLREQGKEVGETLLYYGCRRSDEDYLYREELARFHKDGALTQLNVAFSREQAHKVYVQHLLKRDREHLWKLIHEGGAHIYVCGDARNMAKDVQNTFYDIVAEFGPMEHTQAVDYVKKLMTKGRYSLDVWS
In words: AUC; sedimentation equilibrium, 5 μM heme–rHO-1 plus 5 μM CPR sample, 25 °C, 0.1 M potassium phosphate pH 7.4, 15,000 rpm, absorbance at 455 nm; fit to HO-1 + CPR ⇄ HO-1•CPR.

B1: heme–rat heme oxygenase-1 complex (soluble form) (enzyme)
chain: MERPQLDSMSQDLSEALKEATKEVHIRAENSEFMRNFQKGQVSREGFKLVMASLYHIYTALEEEIERNKQNPVYAPLYFPEELHRRAALEQDMAFWYGPHWQEAIPYTPATQHYVKRLHEVGGTHPELLVAHAYTRYLGDLSGGQVLKKIAQKAMALPSSGEGLAFFTFPSIDNPTKFKQLYRARMNTLEMTPEVKHRVTEEAKTAFLLNIELFEELQALLTEEHKDQSPSQTEFLRQRPASLVQDTTSAETPRGKSQISTSSSQTP
notes: rat heme oxygenase-1 (HO-1), soluble form made by removing the membrane-spanning region; also called heme–rHO-1; heme–HO-1; source: E. coli, purified; reconstituted with 1.2 equiv. of heme, hydroxyapatite column
Take B1: the Kd in experiment [1] is 111 ± 5 µM; in experiment [2] it was 62.1 ± 1.7 µM; with IAM/DTT-treated 147CC514, 65.5 ± 17 µM; in experiment [3], 0.178 ± 0.077 µM.
